Test results from US20110275569A1, “PROTEASES TARGETING AGENTS” (CONSIGLIO NAZIONALE DELLE RICERCHE, priority 2008, published 2011).

T1: carboxypeptidase Y (Saccharomyces cerevisiae, UniProt P00729)
T1 sequence (P00729 112-532): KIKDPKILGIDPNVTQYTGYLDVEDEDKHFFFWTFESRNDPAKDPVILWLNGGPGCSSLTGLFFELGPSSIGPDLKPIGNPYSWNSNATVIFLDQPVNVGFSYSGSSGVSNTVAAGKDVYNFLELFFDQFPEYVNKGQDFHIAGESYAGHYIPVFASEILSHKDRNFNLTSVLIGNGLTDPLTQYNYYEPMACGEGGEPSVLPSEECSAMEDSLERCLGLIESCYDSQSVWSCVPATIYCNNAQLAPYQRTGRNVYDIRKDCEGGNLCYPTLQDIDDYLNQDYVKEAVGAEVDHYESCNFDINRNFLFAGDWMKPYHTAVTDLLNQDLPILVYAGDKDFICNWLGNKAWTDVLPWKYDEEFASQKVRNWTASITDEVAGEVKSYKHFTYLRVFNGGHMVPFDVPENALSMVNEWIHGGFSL

B1: TFS1: protein of the yeast, founder of the family I51, able to inhibit the carboxypeptidase Y (protein, UniProt P14306 1-219, looked up)
Carboxypeptidase Y inhibitor: MNQAIDFAQASIDSYKKHGILEDVIHDTSFQPSGILAVEYSSSAPVAMGNTLPTEKARSKPQFQFTFNKQMQKSVPQANAYVPQDDDLFTLVMTDPDAPSKTDHKWSEFCHLVECDLKLLNEATHETSGATEFFASEFNTKGSNTLIEYMGPAPPKGSGPHRYVFLLYKQPKGVDSSKFSKIKDRPNWGYGTPATGVGKWAKENNLQLVASNFFYAETK
B2: Sso0767: recombinant protease inhibitor protein from Sulfolobus solfataricus, PEBP family I51, monomer of 19.0 kDa, 157 amino acids (protein, listed as Sulfolobus solfataricus)
chain: MNSESIYSMRVVSSAFKNEDFIPIKYTCDGQDLSPELEWDLVTNAKSYAIIVEDPDAPGGTFIHWVIYNITTNRLPEGVPRLYKSQYGVQGVNDFGNIGYNGPCPPKTHPPHRYYFYVYAIDTILLEIKNINADKLKSLMEGHGIERGFVMGKYKRK

Tests used:
[1] = target: T1, carboxypeptidase Y; conditions: read-out: inhibition constant, carboxypeptidase Y; cited from earlier work
[2] = test system: trypsin; assay: Protease specificity panel: trypsin; type: biochemical
Method: (§1) To identify the biological function of the purified inhibitor Sso0767 (SsCEI), the ability to inhibit a number of proteases was tested. The set of the proteases examined includes: the alpha-chymotrypsin, trypsin, elastase, carboxypeptidase Y, subtilisin, thrombin and two thermophilic proteases, the kumamolisin-ac and pernisine. […] The specific interaction between the inhibitor and the target proteases was also examined by incubating Sso1273 in a reaction mixture containing all the proteases investigated. In these conditions, the catalytic performance of the inhibitor was identical to that observed by assaying each protease alone.

[3] = test system: subtilisin; assay: Protease specificity panel: subtilisin; type: biochemical
Method: as §1

[4] = test system: thrombin; assay: Protease specificity panel: thrombin; type: biochemical
Method: as §1

[5] = target: porcine elastase (Sus scrofa, UniProt P00772); assay: Inhibition of porcine elastase by the S. solfataricus inhibitor; type: biochemical
Method: as §1
(§2) In Table II are reported Ki and IC50 values that are the average of 3-5 separate determinations.

[6] = target: T1, carboxypeptidase Y; assay: Protease specificity panel: carboxypeptidase Y; type: biochemical
Method: as §1

[7] = target: bovine α-chymotrypsin (Bos taurus, UniProt P00766); assay: Inhibition of bovine alpha-chymotrypsin by the S. solfataricus inhibitor; type: biochemical
Method: as §1
The inhibition of Sso1273 (SsCEI) versus α-chymotrypsin followed a hyperbolic pattern with increasing concentrations of the inhibitor and the IC50 value (50% inhibitory concentration) was 0.10 μM (Table II).
The reciprocals of the rate of the substrate hydrolysis for each inhibitor concentration were plotted against the reciprocals of the substrate concentrations. Ki was determined from the formula as per the competitive type of inhibition.
as §2

[8] = Stability of the purified inhibitor (heat, denaturants, digestive proteases); type: physicochemical

Chain of porcine elastase (P00772 27-266): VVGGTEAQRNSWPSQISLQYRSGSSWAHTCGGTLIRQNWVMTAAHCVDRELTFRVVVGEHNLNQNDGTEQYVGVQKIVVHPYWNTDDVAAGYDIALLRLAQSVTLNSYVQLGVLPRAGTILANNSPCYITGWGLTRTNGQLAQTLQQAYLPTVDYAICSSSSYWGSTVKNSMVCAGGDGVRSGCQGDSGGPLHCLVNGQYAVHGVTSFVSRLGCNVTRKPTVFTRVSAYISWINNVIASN

Row | Molecule | Ki [1] | effect on trypsin [2] | effect on subtilisin [3] | effect on thrombin [4] | inhibition activity versus elastase (in words) [5] | effect on carboxypeptidase Y [6] | inhibition activity toward α-chymotrypsin (in words) [7] | type of inhibition of α-chymotrypsin ([7]; Lineweaver-Burk reciprocal plot) | resistance to common protein denaturants [8] | thermostability: inhibitory activity after incubation ([8]; 4 days at 90° C.) | resistance to digestive proteases ([8]; several digestive proteases)
1 | B1 | 1.8 nM |  |  |  |  |  |  |  |  |  | 
2 | B2 |  | not affected | not affected | not affected | clear activity | not affected | best target protease among those tested | competitive inhibitor | high resistance | no reduction in inhibitory activity | resistant
